Data set [1] concerns Saccharomyces cerevisiae. As to the kind of experiment: IDE activity assay in yeast, serial dilution mating test. It counts as cell-based. Conditions: yeast assays. As to the method: Panel A depicts immunoblot of yeast-expressed IDE and IDE^K898A,K899A,S901A. Equivalent percentage amounts of total cellular extracts from yeast containing an empty expression vector or plasmids encoding IDE or the IDE^K898A,K899A,S901A mutant were analyzed by SDS-PAGE and immunoblotting using an IDE-specific antibody. […] An excess of MATa yeast were mixed with decreasing numbers of MATa cells deficient for Axl1p and Step 23p that were transformed with either an empty expression vector or a vector encoding IDE or IDE^K898A,K899A,S901A as indicated. Mating, which leads to colony growth, is dependent on production of mature a-factor pheromone by plasmid-encoded IDE. […] Concentrated samples of a-factor recovered from yeast bearing the indicated expression vector were spotted at the indicated dilutions on a lawn of RC757 MATa cells, which undergo growth arrest upon exposure to a-factor pheromone. […]
The assays take advantage of the ability of IDE, in lieu of the yeast M16 metallopeptidases Axl1p and Step 23p, to participate in the proteolytic maturation of yeast a-factor mating pheromone. […] Growth of diploid colonies, indicative of mating, was scored 3 days after incubation of plates at 30° C. […] Results of mating tests and halo assays were recorded by scanning plates with a Microtek flatbed scanner and importing digitized images into Photoshop and PowerPoint.

Data set [2] is described as follows: TNP-ATP fluorescence measurements, IDE and ATP binding site mutants. The settings on record: 1.5 μM enzyme, 10 μM TNP-ATP, λexc=403 nm. On the procedure: Fluorescence emission spectra were recorded on a Perkin-Elmer LS 55 Luminescence spectrometer with 1.5 μM of IDE, IDE^R429S or IDE^K898A,K899A,S901A in 50 mM Tris-HCl, pH 7.4 with 10 μM TNP-ATP. Fluorescence spectra were recorded with a λexc=403 nm.
TNP-ATP [2′,3′-O-(2,4,6-Trinitrophenyl)adenosine-5′-triphosphate] fluorescence was monitored at excitation and emission wavelengths of 403 nm and 547 nm, respectively, using a Perkin-Elmer LS55 Luminescence Spectrometer at 20±0.1° C. TNP-ATP (Molecular Probes, Inc.) as supplied was diluted to 4 mM with 50 mM Tris-HCl, pH 7.4, and added to achieve the indicated concentrations.

The test system of data set [3] is Abz-GGFLRKHGQ-EDDnp. As to the kind of experiment: Enzyme activity assay, kinetics of IDE and ATP binding site mutants with fluorogenic substrate. The settings on record: Abz-GGFLRKHGQ-EDDnp as substrate; for Hill coefficient / Km / kcat / Vmax: rat IDE; for Vmax: 50 mM Tris-HCl, pH 7.4. It counts as biochemical. As to the method:
Reactions were conducted in 50 mM Tris-HCl, pH 7.4.
(§1) IDE activity was determined by measuring the increase in fluorescence that occurs when the enzyme cleaves the internally quenched fluorogenic substrate Abz-[…]-EDDnp (SEQ ID NO:3) at the R—K bond (Song et al., Journal of Biologial Chemistry 276, 1152-1155 (2001)). The reaction was followed on a SpectraMax Gemini XS fluorescence plate reader using an excitation and emission wavelengths of 318 nm and 419 nm, respectively. Initial velocities were determined using SoftMax Pro 4.0 and kinetic constants calculated using GraphPad Prism 4.0. ATPase activity was measured by following Pi release with acid-molybdate as described by Harder et al. (Harder et al., Biochemical Journal 298 (Pt 2), 395-401 (1994)).

Data set [4] concerns Abz-GGFLRKHGQ-EDDnp. As to the kind of experiment: Activation by ATP of Abz-[…]-EDDnp hydrolysis, IDE and ATP binding site mutants. It counts as biochemical. Conditions: 10 μM Abz-GGFLRKHGQ-EDDnp as substrate. On the procedure: Activity was determined in 50 mM Tris-HCl, pH 7.4 with 10 μM Abz-[…]-EDDnp (SEQ ID NO:3) as substrate at the indicated concentrations of ATP (panel A), PPPi (panel B) or, TNP-ATP (panel C). Each reaction contained 0.5 μg of enzyme.
as §1

The subject of data set [5] is Abz-GGFLRKHGQ-EDDnp. As to the kind of experiment: Effect of bradykinin on Abz-[…]-EDDnp hydrolysis, IDE and ATP binding site mutants. It counts as biochemical. The settings on record: 10 μM substrate, bradykinin as activator. On the procedure:
Activity was determined in 50 mM Tris-HCl, pH 7.4 with 10 μM Abz-[…]-EDDnp (SEQ ID NO:3) as substrate and indicated concentrations of bradykinin. Reactions contained 0.5 μg of protein.
as §1

B1: IDE^K898A,K899A,S901A: Rat IDE residues 41-1019 bearing the mutations K898A, K899A, S901A; ATP binding site mutant (protein, listed as Rattus norvegicus)
chain: MRNGLVWLLHPALPSTLHSILGARPPPVKRLCGFPKQIYSTMNNPAIQRIEDHIVKSPEDKREYRGLELANGIKVLLISDPTTDKSSAALDVHIGSLSDPPNIPGLSHFCEHMLFLGTKKYPKENEYSQFLSEHAGSSNAFTSGEHTNYYFDVSHEHLEGALDRFAQFFLCPLFDASCKDREVNAVDSEHEKNVMNDAWRLFQLEKATGNPKHPFSKFGTGNKYTLETRPNQEGIDVREELLKFHSTYYSSNLMAICVLGRESLDDLTNLVVKLFSEVENKNVPLPEFPEHPFQEEHLKQLYKIVPIKDIRNLYVTFPIPDLQQYYKSNPGHYLGHLIGHEGPGSLLSELKSKGWVNTLVGGQKEGARGFMFFIINVDLTEEGLLHVEDIILHMFQYIQKLRAEGPQEWVFQECKDLNAVAFRFKDKERPRGYTSKIAGKLHYYPLNGVLTAEYLLEEFRPDLIDMVLDKLRPENVRVAIVSKSFEGKTDRTEQWYGTQYKQEAIPEDVIQKWQNADLNGKFKLPTKNEFIPTNFEILALEKDATPYPALIKDTAMSKLWFKQDDKFFLPKACLNFEFFSPFAYVDPLHCNMAYLYLELLKDSLNEYAYAAELAGLSYDLQNTIYGMYLSVKGYNDKQPILLKKITEKMATFEIDKKRFEIIKEAYMRSLNNFRAEQPHQHAMYYLRLLMTEVAWTKDELKEALDDVTLPRLKAFIPQLLSRLHIEALLHGNITKQAALGVMQMVEDTLIEHAHTKPLLPSQLVRYREVQLPDRGWFVYQRRNEVHNNCGIEIYYQTDMQSTSENMFLELFCQIISEPCFNTLRTKEQLGYIVFSGPRRANGIQGLRFIIQSEKPPHYLESRVEAFLITMEKAIEDMTEEAFQKHIQALAIRRLDKPAALAAECAKYWGEIISQQYNYDRDNIEVAYLKTLSKDDIIKFYKEMLAVDAPRRHKVSVHVLAREMDSCPVVGEFPSQNDINLSEAPPLPQPEVIHNMTEFKRGLPLFPLVKPHINFMAAKL
modifications: wild-type Insulin Degrading Enzyme (IDE) from rat
What is called Hill coefficient is a measure of the steepness of the concentration-response curve. As usually defined, the Km is the substrate concentration at which the rate is half of its maximum. The term kcat denotes the maximal rate divided by the concentration of active sites. One may read the Vmax as the top rate of the reaction or transport when substrate is in excess. On to B1, for which the “intracellular function relative to unmodified IDE” value in data set [1] is on record as “reduced intracellular function”. The “fluorescence associated with TNP-ATP binding, relative to wild type IDE” value in data set [2] is recorded as “lower fluorescent yield”. In data set [3], the “Hill coefficient” value was determined as 1.7 ± 0.1, the Km was 17.3 ± 1 mM, the kcat was 0.258 ± 0.01 s⁻¹ and the maximal velocity (Vmax) is recorded as 140.8 ± 5.5 nmol/min/mg. In data set [4], the “level of activation by ATP, of the wild type value” was “even less activation”. Also, in data set [5], the “rate of Abz-GGFLRKHGQ-EDDnp hydrolysis with bradykinin, relative to wild type IDE” value is “significantly reduced”.

B2: IDE^R429S: Rat IDE residues 41-1019 bearing the mutation R429S; ATP binding site mutant (protein, listed as Rattus norvegicus)
chain: MRNGLVWLLHPALPSTLHSILGARPPPVKRLCGFPKQIYSTMNNPAIQRIEDHIVKSPEDKREYRGLELANGIKVLLISDPTTDKSSAALDVHIGSLSDPPNIPGLSHFCEHMLFLGTKKYPKENEYSQFLSEHAGSSNAFTSGEHTNYYFDVSHEHLEGALDRFAQFFLCPLFDASCKDREVNAVDSEHEKNVMNDAWRLFQLEKATGNPKHPFSKFGTGNKYTLETRPNQEGIDVREELLKFHSTYYSSNLMAICVLGRESLDDLTNLVVKLFSEVENKNVPLPEFPEHPFQEEHLKQLYKIVPIKDIRNLYVTFPIPDLQQYYKSNPGHYLGHLIGHEGPGSLLSELKSKGWVNTLVGGQKEGARGFMFFIINVDLTEEGLLHVEDIILHMFQYIQKLRAEGPQEWVFQECKDLNAVAFRFKDKESPRGYTSKIAGKLHYYPLNGVLTAEYLLEEFRPDLIDMVLDKLRPENVRVAIVSKSFEGKTDRTEQWYGTQYKQEAIPEDVIQKWQNADLNGKFKLPTKNEFIPTNFEILALEKDATPYPALIKDTAMSKLWFKQDDKFFLPKACLNFEFFSPFAYVDPLHCNMAYLYLELLKDSLNEYAYAAELAGLSYDLQNTIYGMYLSVKGYNDKQPILLKKITEKMATFEIDKKRFEIIKEAYMRSLNNFRAEQPHQHAMYYLRLLMTEVAWTKDELKEALDDVTLPRLKAFIPQLLSRLHIEALLHGNITKQAALGVMQMVEDTLIEHAHTKPLLPSQLVRYREVQLPDRGWFVYQRRNEVHNNCGIEIYYQTDMQSTSENMFLELFCQIISEPCFNTLRTKEQLGYIVFSGPRRANGIQGLRFIIQSEKPPHYLESRVEAFLITMEKAIEDMTEEAFQKHIQALAIRRLDKPKKLSAECAKYWGEIISQQYNYDRDNIEVAYLKTLSKDDIIKFYKEMLAVDAPRRHKVSVHVLAREMDSCPVVGEFPSQNDINLSEAPPLPQPEVIHNMTEFKRGLPLFPLVKPHINFMAAKL
modifications: wild-type Insulin Degrading Enzyme (IDE) from rat
As to B2, the “fluorescence associated with TNP-ATP binding, relative to wild type IDE” value in data set [2] is “lower fluorescent yield”. For the same molecule, in data set [3], the “kcat relative to wild-type IDE” value is given as “essentially the same”, the “Hill coefficient” value is reported as 1.7 ± 0.2, the Michaelis constant (Km) was 21.3 ± 2.4 mM and the kcat worked out at 0.0783 ± 0.005 s⁻¹. Also, the maximal velocity (Vmax) in data set [3] amounted to 42.3 ± 3.2 nmol/min/mg. Further, the “level of activation by ATP, of the wild type value” in data set [4] is “about 15%”.

(Values after patent US8632989B1, “Mutant insulin degrading enzyme and methods of use” (University of Kentucky Research Foundation, priority 2011, dated 2014).)
